# Patent publication US20230288411A1, “POLYPEPTIDE, MULTIMER, SOLID PHASE, MEASUREMENT METHOD FOR TEST SUBSTANCE, AND REAGENT KIT” (SYSMEX CORPORATION, priority 2020, published 2023)
# “Also recorded” adds a separate entry of the source.
# B1: D-tamavidin (trademark) 2: avidin-like protein derived from Pleurotus cornucopiae consisting of D amino acids, 2nd to 141st amino acid sequence of SEQ ID NO: 4 (peptide, listed as Pleurotus cornucopiae)
# chain: SDVQSSLTGTWYNELNSKMELTANKDGTLTGKYLSKVGDVYVPYPLSGRYNLQPPAGQGVALGWAVSWENSKIHSATTWSGQFFSESSPVILTQWLLSSSTARGDVWESTLVGNDSFTKTAPTEQQIAHAQLHCRAPRLK
# modifications: D-amino acids
# Columns and labels:
# L-biotin-labeled albumin = assay: SPR (Biacore T200) binding evaluation to L-biotin-labeled albumin; design: species or system bovine; details: analyte flowed at 30 μL/min up to 100 nM, single cycle method, albumin immobilized on sensor chip
# Experimental: (§1) A binding ability of D-streptavidin obtained in Example 1 to D-biotin as a natural form and L-biotin as an optical isomer of D-biotin was evaluated by an intermolecular interaction analyzer (Biacore T200) using SPR as a measurement principle.
# Similarly, L-biotin-labeled albumin was prepared using L-biotin-AC5-OSu [see (Amidation of L-biotin) described in Example 3 above].
# Bovine serum albumin was immobilized on flow cells 1 and 3 of a CMS sensor chip (manufactured by Cytiva) of a Biacore T200 system at a target level of 400 RU by an amine coupling method with an amine coupling kit (Cytiva). Further, L-biotin-labeled albumin and D-biotin-labeled albumin were immobilized at a target level of 400 RU to flow cells 2 and 4, respectively, similarly by an amine coupling method. Blocking was performed in each flow cell with 1 M ethanolamine solution, pH 8.5 (manufactured by Cytiva). […]
# (§2) Using HBS-EP+(manufactured by Cytiva) as a running buffer, the prepared D-tamavidin (trademark) 2 was flowed into each flow cell at a flow rate of 30 μL/min in the range of 100 pM to 100 nM by a single cycle method, and binding and dissociation to D-biotin or L-biotin was evaluated by Biacore T200 Evaluation Software (manufactured by Cytiva).
# D-biotin-labeled albumin = assay: SPR (Biacore T200) binding evaluation to D-biotin-labeled albumin; design: species or system bovine; details: analyte flowed at 30 μL/min up to 100 nM, single cycle method, albumin immobilized on sensor chip
# Experimental: as §1
# An N,N-dimethylformamide solution (16.3 μL) containing 10 mg/mL D-biotin-AC5-OSu (manufactured by DOJINDO LABORATORIES) was added to 2.8 mL of 50 mg/mL bovine serum albumin/0.1 M phosphate buffer solution (pH 7.5), and the mixture was stirred, then allowed to stand at 35° C. for 1 hour. Thereafter, desalting was performed by PD-10 (17085101, manufactured by Cytiva) equilibrated with a 0.1 M phosphate buffer (pH 7.5), and D-biotin-labeled albumin was recovered. The number of labeled D-biotin per molecule of albumin by HABA method was 0.4.
# Bovine serum albumin was immobilized on flow cells 1 and 3 of a CMS sensor chip (manufactured by Cytiva) of a Biacore T200 system at a target level of 400 RU by an amine coupling method with an amine coupling kit (Cytiva). […]
# as §2
molecule,measurement,setting,value
B1,binding to L-biotin-labeled albumin (SPR sensorgram),L-biotin-labeled albumin,increase in the SPR signal was observed; also recorded: binds
same,binding to D-biotin-labeled albumin (SPR sensorgram),D-biotin-labeled albumin,No increase in SPR signal; also recorded: does not substantially bind
